Laboratory results reported in the DeepSol protein solubility set.

assay: soluble on expression in E. coli; label from the status in PepcDB or PDB records

| Sequence | soluble on expression in E. coli |
| --- | --- |
| MLCSRYFTSSLFLWGEALPTLLEEFLNEVEKMLKNQVNTRRIHQLLKELDDPLLENKDLEEKLQAFLDYVKEIPNLPEARKRYRIQKSLEMIEKLRSWFLIDYLECSGEEVDLSTDIQYAKGVGPNRKKKLKKLGIETLRDLLEFFPRDYEDRRKIFKLNDLLPGEKVTTQGKIVSVETKKFQNMNILTAVLSDGLVHVPLKWFNQDYLQTYLKQLTGKEVFVTGTVKSNAYTGQYEIHNAEVTPKEGEYVRRILPIYRLTSGISQKQMRKIFEENIPSLCCSLKETLPERILEKRKLLGVKDAYYGMHFPKTFYHLEKARERLAYEELFVLQLAFQKIRKEREKHGGIPKKIEGKLAEEFIKSLPFKLTNAQKRAHQEIRNDMISEKPMNRLLQGDVGSGKTVVAQLAILDNYEAGFQTAFMVPTSILAIQHYRRTVESFSKFNIHVALLIGATTPSEKEKIKSGLRNGQIDVVIGTHALIQEDVHFKNLGLVIIDEQHRFGVKQREALMNKGKMVDTLVMSATPIPRSMALAFYGDLDVTVIDEMPPGRKEVQTMLVPMDRVNEVYEFVRQEVMRGGQAFIVYPLIEESDKLNVKSAVEMYEYLSKEVFPEFKLGLMHGRLSQEEKDRVMLEFAEGRYDILVSTTVIEVGIDVPRANVMVIENPERFGLAQLHQLRGRVGRGGQEAYCFLVVGDVGEEAMERLRFFTLNTDGFKIAEYDLKTRGPGEFFGVKQHGLSGFKVADLYRDLKLLEWAREDVQEIDVEGIELPEEIKLIEVG | soluble |
| MLDGLTYAYGDLIEKVPDFEIIQRKSPKSGKVALVSGGGSGHKPAHAGFVGEGMLSAAVCGAIFTSPTPDQIYEAIKSADEGAGVLLIIKNYLGDVMNFEMAREMAEMEEIKVEQIIVDDDIAVENSLYTQGRRGVAGTVLVHKILGAAAHQEASLDEIKDLADKVVKNIKTIGLALSAATVPEVGKPGFVLDDNEIEYGVGIHSEPGYRREKMKTSYELATELVGKLKEEFKFEAGQKYGILVNGMGATPLMEQFIFMNDVAKLLTEENIEILFKKVGNYMTSIDMAGLSLTMIKLEDDQWLKNLNEDVKTISWGLEHHHHHH | not soluble |
| MLDIVLYEPEIPQNTGNIIRLCANTGFRLHLIEPLGFTWDDKRLRRSGLDYHEFAEIKRHKTFEAFLESEKPKRLFALTTKGCPAHSQVKFKLGDYLMFGPETRGIPMSILNEMPMEQKIRIPMTANSRSMNLSNSVAVTVYEAWRQLGYKGAVNLPEVKLEHHHHHH | soluble |
| MLDVHPSGFYAWLQQPHSQRHQADLRLTGQIKQFWLESGCVYGYRKIHLDLRDSGQQCGVNRVWRLMKRVGIKAQVGYRSPRARKGEASIVSPNRLQRQFNPDAPDERWVTDITYIRTHEGWLYLAVVVDLFSRKIIGWSMQSRMTKDIVLNALLMAVWRRNPEKQVLVHSDQGSQYTSHEWQSFLKSHGLEG | not soluble |
| MLDYFFNPKGIAVIGASNDPKKLGYEVFKNLKEYKKGKVYPVNIKEEEVQGVKAYKSVKDIPDEIDLAIIVVPKRFVKDTLIQCGEKGVKGVVIITAGFGETGEEGKREEKELVEIAHKYGMRIIGPNCVGIMNTHVDLNATFITVAKKGNVAFISQSGALGAGIVYKTIKEDIGFSKFISVGNMADVDFAELMEYLADTEEDKAIALYIEGVRNGKKFMEVAKRVTKKKPIIALKAGKSESGARAASSHTGSLAGSWKIYEAAFKQSGVLVANTIDEMLSMARAFSQPLPRGNKVAIMTNAGGPGVLTADELDKRGLKLATLEEKTIEELRSFLPPMAAVKNPVDMIASARGEDYYRTAKLLLQDPNVDMLIAICVVPTFAGMTLTEHAEGIIRAVKEVNNEKPVLAMFMAGYVSEKAKELLEKNGIPTYERPEDVASAAYALVEQAKNVGILEVE | soluble |
| MLEARDLYCERDERTLFRGLSFTVDAGEWVQVTGGNGAGKTTLLRLLTGLARPDGGEVYWQGEPLRRVRDSFHRSLLWIGHQPGIKTRLTARENLHFFHPGDGARLPEALAQAGLAGFEDVPVAQLSAGQQRRVALARLWLTRAALWVLDEPFTAIDVNGVARLTRRMAAHTAQGGMVILTTHQPLPGAADTVRRLALTGGGAGL | not soluble |
| MLEHGGRLREAARRYDIPLADWLDLSTGIAPWPFSLPAIPEQAWTRLPESDDGLEAAACLYYGAERVLPLAGSQAAIQALPRMRRGGRVGVLSPCYAEHAHAWRQAGHLVREIGEAEVEPYLDSLDVLLVVNPNNPTGRVFEPAELLAWHARLQRRGGWLLVDEAFMDCTPQSSLAACSNRPGLIVLRSFGKFFGLAGARLGFALGERPLLQALAEQLGPWTVNGPVRHVAQSALRDRQQQRQQRERLLAASQRLEELLRRHGWPPAGGSALFQRLVDPRCAALHDYLARRGILTRQFEQPASLRLGLPADEAAWARLDAALLGFKEPAHE | not soluble |
| MLEKLWPFGRSRVRKAVEEALEKAFQDVGEVLEPLSELSEHEDHYLLRVEVPGLGPENLEVRLEGDQLVIEGEKREEKRAKHLAEIVYGRIYRAYLLPKDAKKEGIEARLAKGVLEVRIPREKRPEEPPVRIPIQES | soluble |
| MLERHDRLETLRKLKELQERIAELAYLLTGEEPAAWTPRVDLLETEEHYVLLVDLPGVRPEDLELLEEGQRVTLAGVRHPLPGTYLLEERPMGTFRRTLDLPGPIEEGTAQATLRNGVLEVRFRKRPATALPLKEA | soluble |
| MLESVHQASAYTADVQPADVVIVGAGAAGLAAAHHLTRAGLTTAVLEAAPNVGGRMSTEKVDGFRLDRMGQLLSTAYPELRSTPGLDALPLREFSPGVLVHSDGHLHRVGEPGTPRSARGALTAARALASAPRQQRTPRAPRTQGASRPGLLGSPVGQSRLAGALARLAATPPDRLLSRPELPAARALSALGLPPRTIDGFLRPLLAALLCDPALETSSRCADLALRAFVTGRLCVPEGGADVLPELLAATLPPGTVHTGVRVTAVSTTSVTTKDHGELRCRAVLLATGARAAARLLPGLRVPGFHPVTVLHHTTDEPPLGDPALVLDAERGGPVAHTAVISRVDPSRAPAGRALVSSTVLGTPPPPDRLEAAVRAQLARLYRTSTARWELLAIHHDSEAVPAMPPPHDPRRPVRLLAGLYICGDHRDTSTVQGALRSGRRAAHALLTDVGAGQTSLEEPLETAALEHHHHHH | not soluble |
| MLEVREVEKSFKKKKVLKGGSLSVNKGEIVGLLGPNGAGKTTLFNSIIGFISVDKGKVLLDGEDVTHLPPFKRAQKGLAFLPQEHTLFEDLTVLENLLIFLEFFTDSKEEAITKAEALLEDFGLLELKDQKAYALSGGQKRRLEIARSLITTPKYVLLDEPFAGLDPIIVSEIREIVKNLKNNGIGVLITDHNVRETIKMVDRVYIISEGKVLAHGKPEEVVNNEAVRKTYLGVDFKL | soluble |
| MLFDTHAHLNAVQYEEDLEQVIERARDEGVSHIVVVGFDRPTIDRAIELAERYPFIYAAVGWHPVDAIEMTDDDLQMIEQLAAHPKVVALGEMGLDYHWDKSPKDVQQEVFRQQIRLAKKVKLPIIIHNREATADILKILQEENAAEVGGIMHCFSGSVEVAKQCMDMNFLISLGGPVTFKNAKKPKEVAKEIPLSHLLIETDCPYLTPHPFRGKRNEPSYVKYVAEAIAQIKNISFAEVAETTAENAKKLFAIDR | not soluble |
| MLFKRPDTETLYFALVNKDPAYEGVAYVCVTSTKIFCRFTCTARKPKIENCRFRETITECLEAGFRPCKRCKPMLSYGTPDGTVTALLTALENEPARRWREEDVVALGHDPSTVRRSFKRRFGMSFLEIARLRRVGDAAESLASGEAVIGAQIDAGYESGSGFRSAINQLFGTSPAAMKGRGFLKGDWIDTPIGPMLAVADDHALHLLEFADRPALPAELKRLKARTGADMVLGRTAVTGQIAAELAAYFAGRSGSFETRLAGHGTPFERDVWRNLREIPAGEIVSYSSLATAMERPTAVRAVARANGANQLAIVVPCHRVLGADGSLTGYGGGLWRKKWLIEHERRMARGLEHHHHHH | soluble |
| MLFTIEQLELIKKLQHTGMSSDQLLKAFGELEVPEQLQNNNTIAAALYSPLLVQHLTTPKSETPVKLTVQTVPTPVKSEPQSSNCSSPFEHPICSNAPRPIRSQRTPMKEITTLDDPNELEEFMKQGEEACILDMKTFITQYSLRQTTVAMMTGVSQPYISKLLNGNHRELSLRCRKNIYCWYLNCRRHPNKLAAFLADPTTRLETNGDGELIPQRRERYVFRPILIRMLESFFTQTPFPDLPRRVEIANACNHVLKMDKKGVGLMPKEVVSPQVVSNWFANKRKELRRRSAEASAASTSSASSSASSTANHDSVSVSSMSPRDEETSSRNTTPETAISPSPAVSTFEVSRPSAIISATSSTTSPISIPATIIPSVSPSALELFAMAQQLGVQLPVPFPTLPTHFFPFQMAPFYGNPASILKSE | not soluble |
| MLGAMFRAGTPMPPNLNSQGGGHYFIDRDGKAFRHILNFLRLGRLDLPRGYGETALLRAEADFYQIRPLLDALRELEASQGTPAPTAALLHADVDVSPRLVHFSARRGPHHYELSSVQVDTFRANLFCTDSECLGALRARFGVASGDRAEGSPHFHLEWAPRPVELPEVEYGRLGLQPLWTGGPGERREVVGTPSFLEEVLRVALEHGFRLDSVFPDPEDLLNSRSLRFVRH | soluble |
| MLGERIMSKLSKGIKDQASGLRNLSRNKPVKVIAVSAGKGGVGKSNISVNLAIALSQLNYSVMLLDADLGLANVDIMLGLHTKYNLSHVLQGICHLSDIILHGPAGVRVIPAASGTEFMTQLSPAEHAGIIDSFNELTDDLDYMIIDTAAGISETVLSFTRSSQELIVVVCDEPTSLTDAYALIKVMSKRYEWTHFHILANMVRNVKDGRDLFNKLFRVSGQFLDVQLDYLGAIPFDENIHKSVKKQNPILIAYPDSPAAHALRELAESVSNWSFKPSLGGNTSFFLERLVAGQF | not soluble |
| MLGLLRRLFDNNEREIARYYKQVVEPVNRLEAEVEKLPDLAAAYRELKEKHEKGASLDELLPMAFALTRESAKRYLGMRHFDVQLIGGAVLHEGKIAEMKTGEGKTLVATLAVALNALTGKGVHVVTVNDYLARRDAEWMGPVYRGLGLSVGVIQHASTPAERRKAYLADVTYVTNSELGFDYLRDNMAISPDQLVLRHDHPLHYAIIDEVDSILIDEARTPLIISGPAEKATDLYYKMAEIAKKLERGLPAEPGVRKEPTGDYTVEEKNRSVHLTLQGIAKAEKLLGIEGLFSPENMELAHMLIQAIRAKELYHRDRDYIVQDGQVIIVDEFTGRLMPGRRYGEGLHQAIEAKEGVRIERENQTLATITYQNFFRLYEKRAGMTGTAKTEEKEFQEIYGMDVVVVPTNRPVIRKDFPDVVYRTEKGKFYAVVEEIAEKYERGQPVLVGTISIEKSERLSQMLKEPRLYLPRLEMRLELFKKASQKQQGPEWERLRKLLERPAQLKDEDLAPFEGLIPPKGNLRTAWEGLKRAVHTLAVLRQGIPHQVLNAKHHAREAEIVAQAGRSKTVTIATNMAGRGTDIKLGGNPEYLAAALLEKEGFDRYEWKVELFIKKMVAGKEEEARALAQELGIREELLERIREIREECKQDEERVRALGGLFIIGTERHESRRIDNQLRGRAGRQGDPGGSRFYVSFDDDLMRLFASDRVIAMLDRMGFDDSEPIEHPMVTRSIERAQKRVEDRNFAIRKQLLQFDDVLSRQREVIYAQRRLILLGKDEEVKEAAIGMVEETVASLAENFLNPEVHPEDWDLEGLKATLLDTAPQLQDFPFAELRALKAEEAVERLVEAALKAYEAREAELSPPLMRAVERFVILNVVDNAWKEHLHNLDVLRQGIFLRGYGQKDPFQEYKIEATRLFNEMVAFIKSEVAKFLFRLKVEAEPVRPVREAPYVPVPEAKPEPSEVFGVERKRATPPPQPGLSRAERRRLMRQEKKRKK | soluble |
| MLHVAGRIEDYALIGDMQIAALVCQDGTVDWLCLPRFDSHAVFAGLLGTEEHGFWRLGPAHASDAEPPRASRRTYRGDSLILESEWDTPRGTVRVTDFMPPRDGAPQLIRIVEGVTGRVPMRSALRMRFSYGLEHHHHHH | not soluble |
